The target in this test is endogenous GRB2 (human (endogenous in HEK-293T)) (UniProt P62993).
Sequence of UniProt P62993 (P62993 whole entry): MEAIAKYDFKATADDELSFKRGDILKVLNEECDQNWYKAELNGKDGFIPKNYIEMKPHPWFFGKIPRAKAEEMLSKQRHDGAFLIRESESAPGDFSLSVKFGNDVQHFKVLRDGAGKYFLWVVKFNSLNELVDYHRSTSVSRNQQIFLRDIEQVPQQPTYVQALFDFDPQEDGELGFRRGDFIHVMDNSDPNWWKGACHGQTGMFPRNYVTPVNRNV

On to “GST-tagged hPIV3-C (full-length) (from UniProt P06165 1-199) (natural protein)”, for which the Elk1 trans-reporter after EGF in HEK-293T expressing hPIV3-C without a tag was determined as 14 fold.

(Values after paper PMC2736567.)
